Here are results for five molecules from patent US20090136503A1 (BEIJING COTIMES BIOTECH, published 2009).

Residue numbers refer to the chain shown, from its start. Read-outs that look alike come from different tables or passages of the source.

Assay [1] has as its target T1, Heterodimeric TRAIL-R1-Fc/TRAIL-R2-Fc fusion protein (human, UniProt O00220 24-239; O14763 56-210).
T1 construct: extracellular domain; also called TRAIL-R1/TRAIL-R2 dimer; TRAIL-R1/TRAIL-R2 heterodimer antigen; not shown: Fc portion of human IgG1
The assay can be described thus: ELISA: plate coated with TRAIL-R1/TRAIL-R2-Fc heterodimer at 1 µg/ml, CTB003 titrated, HRP anti-mouse IgG, TMB, OD 450/650.

In assay [2] the target is T2, TRAIL-R4-Fc fusion protein (human, UniProt Q9UBN6 56-211).
T2 construct: The origin of the protein is not described; also called TRAIL-R4-Fc fusion antigen; not shown: human IgG1 Fc
T2 sequence (looked up): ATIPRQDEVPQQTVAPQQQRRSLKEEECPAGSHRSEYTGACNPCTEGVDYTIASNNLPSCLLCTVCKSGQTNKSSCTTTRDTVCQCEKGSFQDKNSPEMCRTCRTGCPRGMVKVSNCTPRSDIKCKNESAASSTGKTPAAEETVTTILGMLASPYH
In words: ELISA: plate coated with TRAIL-R4-Fc at 1 µg/ml, HRP goat anti-mouse IgG1, TMB.

For assay [3], the target named is TRAIL-R1 and/or TRAIL-R2 on human cancer cells. The assay can be described thus: cell-based or functional assay.
In assay [4] the target is T3, BSA (bovine serum albumin), negative control (bovine, UniProt P02769 25-607). The assay can be described thus: ELISA: plate coated with BSA (control) at 1 µg/ml, HRP goat anti-mouse IgG1, TMB.
T3 sequence (P02769 25-607 limits assumed): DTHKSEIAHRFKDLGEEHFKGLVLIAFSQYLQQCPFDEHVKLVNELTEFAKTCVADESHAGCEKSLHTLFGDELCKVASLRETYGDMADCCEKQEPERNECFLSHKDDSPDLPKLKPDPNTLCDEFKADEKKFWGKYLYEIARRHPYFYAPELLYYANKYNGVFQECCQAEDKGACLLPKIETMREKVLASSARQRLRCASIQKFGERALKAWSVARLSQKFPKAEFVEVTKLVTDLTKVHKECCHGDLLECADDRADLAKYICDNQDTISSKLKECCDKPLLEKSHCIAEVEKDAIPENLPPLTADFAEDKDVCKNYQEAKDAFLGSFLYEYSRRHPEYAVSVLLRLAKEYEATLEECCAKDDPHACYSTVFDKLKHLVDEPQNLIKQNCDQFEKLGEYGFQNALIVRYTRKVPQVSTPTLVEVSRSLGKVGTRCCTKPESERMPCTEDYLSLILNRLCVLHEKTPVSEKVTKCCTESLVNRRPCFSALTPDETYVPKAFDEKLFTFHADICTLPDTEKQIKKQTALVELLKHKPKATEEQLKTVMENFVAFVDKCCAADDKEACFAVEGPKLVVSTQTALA
The target of assay [5] is T4, TRAIL-R3-Fc fusion protein (human, UniProt O14798 26-221, limits assumed).
T4 construct: The origin of the protein is not described; also called TRAIL-R3-Fc fusion antigen; not shown: human IgG1 Fc
T4 sequence (looked up): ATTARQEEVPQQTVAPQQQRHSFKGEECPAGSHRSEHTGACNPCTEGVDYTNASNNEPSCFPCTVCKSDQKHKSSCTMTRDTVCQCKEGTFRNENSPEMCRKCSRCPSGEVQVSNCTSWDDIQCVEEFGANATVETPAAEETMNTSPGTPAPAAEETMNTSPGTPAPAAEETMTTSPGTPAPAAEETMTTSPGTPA
The assay can be described thus: ELISA: plate coated with TRAIL-R3-Fc at 1 µg/ml, CTB003 titrated, HRP anti-mouse IgG, TMB, OD 450/650.

Assay [6] addresses T5, TRAIL-R2 on the surface of human tumor cells (human, UniProt O14763 56-440). The assay can be described thus: cell-based or functional assay.
For assay [7], the target named is T6, TRAIL-R1-Fc fusion protein (human, UniProt O00220 24-239).
T6 construct: extracellular domain; also called TRAIL-R1-Fc fusion antigen; not shown: Fc portion of human IgG1
The assay can be described thus: ELISA: plate coated with TRAIL-R1-Fc at 1 µg/ml, CTB003 titrated, HRP anti-mouse IgG, TMB, OD 450/650.

In assay [8] the target is T6, TRAIL-R1-Fc fusion protein. The assay can be described thus: ELISA: plate coated with TRAIL-R1-Fc at 1 µg/ml, HRP goat anti-human kappa, TMB.
Assay [9] concerns the target T3, BSA (bovine serum albumin), negative …. The assay can be described thus: ELISA: plate coated with BSA (control) at 1 µg/ml, HRP goat anti-human kappa, TMB.
For assay [10], the target named is T4, TRAIL-R3-Fc fusion protein. In words: ELISA: plate coated with TRAIL-R3-Fc at 1 µg/ml, HRP goat anti-human kappa, TMB.
Assay [11] addresses T1, Heterodimeric TRAIL-R1-Fc/TRAIL-R2-Fc …. In words: ELISA: plate coated with TRAIL-R1/TRAIL-R2-Fc heterodimer at 1 µg/ml, HRP goat anti-human kappa, TMB.
For assay [12], the target named is T2, TRAIL-R4-Fc fusion protein. In words: ELISA: plate coated with TRAIL-R4-Fc at 1 µg/ml, HRP goat anti-human kappa, TMB.
The target of assay [13] is T4, TRAIL-R3-Fc fusion protein. In words: ELISA: plate coated with TRAIL-R3-Fc at 1 µg/ml, HRP goat anti-mouse IgG, TMB.
Assay [14] deals with T2, TRAIL-R4-Fc fusion protein. In words: ELISA: plate coated with TRAIL-R4-Fc at 1 µg/ml, HRP goat anti-mouse IgG, TMB.
For assay [15], the target named is Human IgG1 (control antigen) (human). In words: ELISA; human IgG1 captured on goat anti-human IgG, antibody at 2 µg/ml.
For assay [16], the target named is T5, TRAIL-R2 on the surface of human tumor …. In words: cell-based or functional assay. This is another data set of the same source.
The target of assay [17] is T3, BSA (bovine serum albumin), negative …. In words: ELISA: plate coated with BSA (control) at 1 µg/ml, HRP goat anti-human kappa, TMB. The source holds these as a separate data set.
In assay [18] the target is T2, TRAIL-R4-Fc fusion protein. The assay can be described thus: ELISA: plate coated with TRAIL-R4-Fc at 1 µg/ml, HRP goat anti-human kappa, TMB. This is another data set of the same source.
Assay [19] addresses T6, TRAIL-R1-Fc fusion protein. In words: ELISA: plate coated with TRAIL-R1-Fc at 1 µg/ml, HRP goat anti-human kappa, TMB. This is another data set of the same source.
Assay [20] addresses T1, Heterodimeric TRAIL-R1-Fc/TRAIL-R2-Fc …. In words: ELISA: plate coated with TRAIL-R1/TRAIL-R2-Fc heterodimer at 1 µg/ml, HRP goat anti-human kappa, TMB. The source holds these as a separate data set.
The target of assay [21] is T4, TRAIL-R3-Fc fusion protein. In words: ELISA: plate coated with TRAIL-R3-Fc at 1 µg/ml, HRP goat anti-human kappa, TMB. This is another data set of the same source.
Assay [22] concerns the target T3, BSA (bovine serum albumin), negative …. The assay can be described thus: ELISA: plate coated with BSA (control) at 1 µg/ml, HRP goat anti-human kappa, TMB. The source holds these as a separate data set.
For assay [23], the target named is T2, TRAIL-R4-Fc fusion protein. In words: ELISA: plate coated with TRAIL-R4-Fc at 1 µg/ml, HRP goat anti-human kappa, TMB. This is another data set of the same source.
The target in assay [24] is T4, TRAIL-R3-Fc fusion protein. In words: ELISA: plate coated with TRAIL-R3-Fc at 1 µg/ml, HRP goat anti-human kappa, TMB. The source holds these as a separate data set.
Assay [25] has as its target TRAIL-R1 on the surface of human tumor cells (human, UniProt O00220 24-468). In words: cell-based or functional assay.

B1: CTB003 murine monoclonal antibody (hybridoma CGMCC 1665) (antibody, mouse IgG1, V domains shown)
VH: EVHLVESGGGLVRPGGSLKLSCAASGFAFSSYDMSWVRQTPEKRLEWVAYISDGGGITYYPDTMKGRLTISRDNAKNTLSLQMSSLKSEDTAMYYCARHITMVVGPFAYWGQGTLVTVSA
VL: DIQMTQSSSSFSVSLGDRVTITCKAGEDIYNRLAWYQQKPGNAPRLLISGATNLETGVPSRFSGSGSGKDYTLSITSLQTEDVATYYCQQYWSTPLTFGAGTKLELK
notes: also called murine CTB003; parental murine CTB003
With B1, in assay [1], the “EC50 (read off the curve)” value is about 20 ng/mL. In addition, the binding result in [2] is on record as “no binding (tested: 1000 ng/ml)”. Further, in assay [3], the IC50 (ng/ml), killing of Carov 3 cells, ATPLite cell viability was determined as 24.6 ng/mL; the IC50 (ng/ml), killing of Colo205 cells, ATPLite cell viability was determined as 7.1 ng/mL; the IC50 (ng/ml), killing of Du145 cells, ATPLite cell viability amounted to 25.3 ng/mL; the IC50 (ng/ml), killing of H-2122 cells, ATPLite cell viability worked out at 28.5 ng/mL. Besides, in assay [3], the IC50 (ng/ml), killing of MDA231 cells, ATPLite cell viability came to 3.8 ng/mL and the IC50 (ng/ml), killing of MIAcap cells, ATPLite cell viability was 13.2 ng/mL. Further, in assay [4], the binding result is “no binding (tested: 1000 ng/ml)”. For the same molecule, in assay [5], the binding result was “no binding (tested: 10^4 ng/ml)”. Moreover, the “IC50 (read off the curve); cell viability (%) of Jurkat cells, ATPLite, 16 h” value in assay [6] is about 20 ng/mL. For the same molecule, the “EC50 (read off the curve)” value in assay [7] was about 20 ng/mL.

B2: Human chimeric CTB003 (mouse-human chimeric antibody) (antibody, human IgG1, V domains shown)
VH: B1 VH with L68F
VL: DIQMTQSSSSFSVSLGDRVTITCKASEDIYNRLAWYQQKPGNAPRLLISGATSLETGVPSRFSGSGSGKDYTLSITSLQTEDVATYYCQQYWSTPLTFGAGTKLELKR
notes: Human IgG1 / kappa constant regions, made in CHO cells; also called hCTB003; HuCTB003
Turning to B2, the binding result is recorded as “binds” in assay [8]; “no binding (tested: 1000 ng/ml)” in assay [9]; “no binding (tested: 1000 ng/ml)” in assay [10]; “binds” in assay [11]; “no binding (tested: 1000 ng/ml)” in [12].

B3: CTB006 murine monoclonal antibody against TRAIL-R2 (hybridoma CGMCC 1691) (antibody, V domains shown)
VH: QVQLQQPGPELVKPGASVRMSCKASGYTFTSYFIHWVKQRPGQGLEWIGWIYPGNVNTKYSEKFKGKATLTADKSSSTAYMQFSSLTSEDSAVYFCARGEAGYFDYWGQGTTLTVSS
VL: DIVMTQSHKFMSTSVGDRVSITCKASQDVSTAVAWYQQKPGQSPRLLIYWASTRHTGVPDRFTGSGSGTDYTLTISSVQAEDQALYYCQQHYRTPWTFGGGTKLEIK
notes: Murine monoclonal antibody; also called Anti-TRAIL-R2 (CTB006); CTB006-HRP
Take B3: the binding result in assay [13] was “no binding (tested: 1000 ng/ml)”. The “IC50 (read off the curve); cell viability (%) of Jurkat cells, ATPLite, 16 h” value in [6] was about 10 ng/mL. In addition, the binding result in assay [14] is given as “no binding (tested: 1000 ng/ml)”. For the same molecule, in [15], the OD 450 nm/650 nm was found to be 0.028 OD. Also, in [16], the “IC50 (ng/ml), killing of Carov 3 cells, ATPLite cell viability” value (“IC50 (ng/ml), killing of Carov 3 cells” below) was found to be 17.4 ng/mL; the “IC50 (ng/ml), killing of Colo205 cells, ATPLite cell viability” value (from here on “IC50 (ng/ml), killing of Colo205 cells”) was 5.8 ng/mL; the “IC50 (ng/ml), killing of Du145 cells, ATPLite cell viability” value (shortened to “IC50 (ng/ml), killing of Du145 cells”) worked out at 55.6 ng/mL; the “IC50 (ng/ml), killing of H-2122 cells, ATPLite cell viability” value (from here on “IC50 (ng/ml), killing of H-2122 cells”) came out at 44.1 ng/mL. Further, in assay [16], the “IC50 (ng/ml), killing of MDA231 cells, ATPLite cell viability” value (from here on “IC50 (ng/ml), killing of MDA231 cells”) was found to be 2.2 ng/mL and the “IC50 (ng/ml), killing of MIAcap cells, ATPLite cell viability” value (from here on “IC50 (ng/ml), killing of MIAcap cells”) is 9.5 ng/mL.

B4: Human chimeric CTB006 (mouse-human chimeric antibody) (antibody, V domains shown)
VH: B3 VH with Q1E, P7S
VL: DIVMTQSHKFMSTSVGDRVSITCKASQDVSTAVAWYQQKPGQSPRLLIYWASTRHTGVPDRFTGSGSGTDYTLTISSVQAEDQALYYCQQHYRTPWTFGGGTKLEIKR
notes: Human IgG1 / kappa constant regions, made in CHO cells; also called hCTB006; HuCTB006
With B4, the binding result in assay [17] is reported as “no binding (tested: 1000 ng/ml)”. In addition, the binding result in assay [18] was “no binding (tested: 1000 ng/ml)”. Besides, the binding result in assay [19] is on record as “no binding (tested: 1000 ng/ml)”. Besides, the binding result in assay [20] is reported as “binds”. In assay [21], the binding result is on record as “no binding (tested: 1000 ng/ml)”. In assay [16], the “IC50 (ng/ml), killing of Carov 3 cells” value was found to be 18.5 ng/mL; the “IC50 (ng/ml), killing of Colo205 cells” value was 6.2 ng/mL; the “IC50 (ng/ml), killing of Du145 cells” value amounted to 52.3 ng/mL; the “IC50 (ng/ml), killing of H-2122 cells” value came out at 42.1 ng/mL. In [16], the “IC50 (ng/ml), killing of MDA231 cells” value was 1.5 ng/mL and the “IC50 (ng/ml), killing of MIAcap cells” value came out at 10.1 ng/mL.

B5: Human chimeric CTB007 (mouse-human chimeric antibody) (antibody, V domains shown)
VH: EVQLQQSGAELVKPGASVKLSCTASGFNIKDTYMHWVKQRPEQGLEWIGRIDPANGNTKYDPKFQGKATITADTSSNTAYLQLSSLTSEDTAVYYCAYYYVSNAWFTYWGQGTLVTVSA
VL: DIQMTQSPASLSVSVGETVTITCRASENIYSNLEWYQQKQGKSPQLLVYAATNLADGVPSRFSGSGSGTQYSLKINSLQSEDFGSYYCQHFWGTWTFGGGTKLEIKR
notes: Human IgG1 / kappa constant regions, made in CHO cells; also called hCTB007; HuCTB007
For the molecule B5, the binding result in assay [22] is “no binding (tested: 1000 ng/ml)”. Also, the binding result in [23] was “no binding (tested: 1000 ng/ml)”. Besides, the binding result in assay [24] is on record as “no binding (tested: 1000 ng/ml)”. In [25], the “IC50 (ng/ml), killing of Carov 3 cells” value worked out at 31.6 ng/mL; the “IC50 (ng/ml), killing of Colo205 cells” value is 5.9 ng/mL; the “IC50 (ng/ml), killing of Du145 cells” value was 28.6 ng/mL; the “IC50 (ng/ml), killing of H-2122 cells” value is 22.5 ng/mL. In assay [25], the “IC50 (ng/ml), killing of MDA231 cells” value is 7.5 ng/mL and the “IC50 (ng/ml), killing of MIAcap cells” value was 8.8 ng/mL.
